Results reported in patent US20180282402A1 (ATYR PHARMA, published 2018).
Substitutions are numbered along the chain they refer to. Blank lines part the entries; values can stand above or below the binder they belong to.

What was measured:
[1] = biological target: T1, NRP2-Fc (R&D Systems #2215-N2) (human, UniProt O60462 23-864, limits assumed); assay: SPR; column Binding to NRP2 observed by SPR
T1 construct: Bought reagent used as NRP2 in the SPR experiments; also called human NRP2; Neuropilin 2; not shown: Fc

[2] = biological target: T1, NRP2-Fc (R&D Systems #2215-N2); assay: SPR: NRP2 as analyte over immobilized WARS WHEP [panel D]
[3] = biological target: T2, NRP2a-GFP fusion protein on HEK293T cells (human, UniProt O60462 23-931); assay: competition assay, immunofluorescence microscopy on HEK293T cells expressing NRP2v2-GFP, GFP-bright gate; VEGF-C titrated, competitor 175 nM Fc-HRS(2-60)/anti-Fc-PE [panel A]
T2 construct: Transiently expressed; cells fixed before staining; also called NRP2v2-GFP; cell-expressed NRP2a; not shown: GFP (Origene RG220706, NM_003872 ORF clone)
Description: HEK293T cells previously transfected with NRP2v2-GFP were passed the night before staining to 96 well Greiner Clear flat bottomed Microplates pre-coated with collagen coating solution. Supernatants were removed and cells were washed 1 time with binding buffer. Cells were then fixed with 50 μL of 3.7% methanol-free formaldehyde for 20 minutes at room temperature. Cells were washed 2× with binding buffer and then blocked with 100 μL of blocking buffer for 1 hour at room temperature. The cells were then washed one time with binding buffer and then incubated with 50 μL of staining complex overnight at 4 degrees Celsius. Cells were then washed 3 times with binding buffer, and then nuclei were counter stained with […] Hoechst diluted in DPBS for 10 minutes at room temperature. The Hoechst stain was replaced with 1×PBS and subsequently read on an IN Cell Analyzer 2200. 20× images were acquired and analyzed using In Cell Analyzer 1000 Workstation software. Segmentation of the cell mask was achieved using the GFP channel, and the average PE signal intensity was determined within this mask above a threshold intensity of 5000 (termed GFP Bright cells).

Human HARS = biological target: T3, Human HARS (human, UniProt P12081 1-509, limits assumed); assay: SPR (ProteOn); HRS protein immobilized, antibody as analyte
T3 construct: also called human HRS; human histidyl-tRNA synthetase
T3 sequence: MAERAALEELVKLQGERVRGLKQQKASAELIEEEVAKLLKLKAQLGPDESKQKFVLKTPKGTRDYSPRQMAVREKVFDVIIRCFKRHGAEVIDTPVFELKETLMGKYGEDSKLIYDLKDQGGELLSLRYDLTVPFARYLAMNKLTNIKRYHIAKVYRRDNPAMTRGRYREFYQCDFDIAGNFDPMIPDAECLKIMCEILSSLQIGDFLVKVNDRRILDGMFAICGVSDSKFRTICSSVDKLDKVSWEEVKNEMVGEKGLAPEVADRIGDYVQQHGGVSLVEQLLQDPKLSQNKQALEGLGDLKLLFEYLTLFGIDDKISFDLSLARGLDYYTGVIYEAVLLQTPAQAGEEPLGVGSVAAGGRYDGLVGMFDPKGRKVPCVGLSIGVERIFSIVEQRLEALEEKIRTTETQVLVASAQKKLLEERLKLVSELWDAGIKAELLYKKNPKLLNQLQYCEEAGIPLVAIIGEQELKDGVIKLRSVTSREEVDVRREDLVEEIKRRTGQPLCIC

Mouse HARS = biological target: T4, Mouse HARS (mouse, UniProt Q61035 1-509, limits assumed); assay: as above
T4 construct: also called mouse HRS
T4 sequence: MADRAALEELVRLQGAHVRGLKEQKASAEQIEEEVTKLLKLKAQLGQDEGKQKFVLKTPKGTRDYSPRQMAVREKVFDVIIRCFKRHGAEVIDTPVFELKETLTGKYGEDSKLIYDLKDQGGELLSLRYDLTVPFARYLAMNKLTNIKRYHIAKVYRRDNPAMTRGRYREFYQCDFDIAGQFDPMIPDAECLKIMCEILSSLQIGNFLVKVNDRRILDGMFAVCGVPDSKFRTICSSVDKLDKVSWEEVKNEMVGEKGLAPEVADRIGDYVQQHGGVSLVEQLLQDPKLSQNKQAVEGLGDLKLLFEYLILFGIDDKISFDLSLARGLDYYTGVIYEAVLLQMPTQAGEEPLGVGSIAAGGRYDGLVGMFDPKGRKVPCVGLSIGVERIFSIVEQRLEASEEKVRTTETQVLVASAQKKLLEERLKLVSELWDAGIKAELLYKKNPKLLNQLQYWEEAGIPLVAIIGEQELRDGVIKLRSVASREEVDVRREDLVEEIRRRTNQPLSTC

Fc-HRS(2-60) [4] = biological target: T5, Fc-HRS(2-60) (human, UniProt P12081 2-60); assay: flow cytometry blocking assay: 43.75 nM biotinylated Fc-HRS(2-60) complexed with 87.5 nM streptavidin-PE, added with titrated antibody to Expi293 cells stably expressing NRP2, the blocked partner [panel A]
T5 construct: Fc at the N-terminus, HRS residues 2-60 (WHEP domain) at the C-terminus; in the imaging assay pre-complexed with anti-Fc-PE; also called HRS-Fc fusion protein construct; ATYR1923; not shown: human IgG Fc region
T5 sequence: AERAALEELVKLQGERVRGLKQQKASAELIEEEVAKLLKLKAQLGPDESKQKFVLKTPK

Fc-HRS(2-60) [5] = biological target: T5, Fc-HRS(2-60); assay: flow cytometry blocking assay: 43.75 nM biotinylated Fc-HRS(2-60) complexed with 87.5 nM streptavidin-PE, added with titrated antibody to Expi293 cells stably expressing NRP2, the blocked partner [panel B]

B1: VEGF-A145 (ligand, human, UniProt P15692-6 27-171, looked up)
chain: APMAEGGGQNHHEVVKFMDVYQRSYCHPIETLVDIFQEYPDEIEYIFKPSCVPLMRCGGCCNDEGLECVPTEESNITMQIMRIKPHQGQHIGEMSFLQHNKCECRPKKDRARQEKKSVRGKGKGQKRKRKKSRYKSWSVCDKPRR
binding result [1]: no binding

B2: WARS WHEP (other, UniProt P23381 8-64, looked up)
chain: SLLELFNSIATQGELVRSLKAGNASKDEIDSAVKMLVSLKMSYKAAAGEDYKADCPP
notes: domain: WHEP domain; also called WHEP domain of WARS with a V5/His tag; not shown: V5/His tag
binding result [2]: no binding (tested: 20 nM)

B3: VEGF-A121 (ligand, human, UniProt P15692-9 27-147, looked up)
chain: APMAEGGGQNHHEVVKFMDVYQRSYCHPIETLVDIFQEYPDEIEYIFKPSCVPLMRCGGCCNDEGLECVPTEESNITMQIMRIKPHQGQHIGEMSFLQHNKCECRPKKDRARQEKCDKPRR
binding result [1]: no binding

B4: VEGF-C (ligand, human, UniProt P49767 103-227, looked up)
chain: TEETIKFAAAHYNTEILKSIDNEWRKTQCMPREVCIDVGKEFGVATNTFFKPPCVSVYRCGGCCNSEGLQCMNTSTSYLSKTLFEITVPLSQGPKPVTISFANHTSCRCMSKLDVYRQVHSIIRR
notes: also called Recombinant Human VEGF-C Protein
IC50 (read off the curve) [3]: ~2 nM

B5: AB04-425 (antibody, V domains shown)
VH: QVQLVESGGGLVKPGGSLRLSCAASGFTFSDYYMTWIRQAPGKGLEWVSYISGSFRYTNYADKVKGRFTISRDNAKNSLYLQMNSLRDEDTAVYFCARYVYQVVAIGDLWGQGTLVTVSS
VL: DIQMTQSPSSVSASVGDRVTITCRASQGISSWLAWYQQKPGRAPKLLIFAASSLQSGVPSRFSGSGSGTHFTLTISSLQPEDFATYYCQQAESFPYTFGQGTKLEIK
notes: Human; IgG1m(zf) kappa
Kd (Human HARS): 0.01 nM
Kd (Mouse HARS): 0.127 nM

B12: AB13-433 (antibody, V domains shown)
VH: QVQLVESGGGLVKPGGSLRLSCAASGFTFSDYYMSWIRQAPGKGLEWVSYISDSSTYTNYTDSVRGRFTISRDNAKNSLYLQMNSLRAEDTAVYYCARYLYQVIAVADSWGQGTLVTVSS
VL: B5 VL with Y36F, R42K, F49Y, A50V, S53N, Q55E, H70D, E92N
notes: Human; IgG1m(zf) kappa
Kd (Human HARS): 0.21 nM
Kd (Mouse HARS): 0.21 nM

B13: KL31-467 (antibody, V domains shown)
VH: QVQLVQSGAEVKKPGASVKVSCKASGYTFTDYCIGWIRQAPGQGLEWMGDICPGDTYTNDNEKFKDRATMTADTSTSTAYMELSSLRSEDTAVYYCARGEEQLGLRNAMDYWGQGTLVTVSS
VL: DIVMTQSPDSLAVSLGERATINCQSQSVSTSTYNYMHWYQQKPGQPPKLLIKYASNLESGVPDRFSGSGSGTDFTLTISSLQAEDVATYYCQHSWEIPWTFGGGTKVEIK
notes: Humanized; IgG1m(zf) kappa
Kd (Human HARS): 0.21 nM
Kd (Mouse HARS): 0.96 nM
IC50 (read off the curve) (Fc-HRS(2-60) [4]): ~20 nM

B14: KL31-356 (antibody, IgG4, V domains shown)
VH: B13 VH
VL: B13 VL
notes: Humanized; IgG4-2 kappa
Kd (Human HARS): 0.3 nM
Kd (Mouse HARS): 1.4 nM
IC50 (read off the curve) (Fc-HRS(2-60) [4]): ~20 nM

B15: KL31-513 (antibody, IgG4, V domains shown)
VH: B13 VH
VL: EIVLTQSPATLSLSPGERATLSCQSQSVSTSTYNYMHWYQQKPGQAPRLLIKYASNLESGIPDRFSGSGSGTDFTLTISRLEPEDFATYYCGHSYEIPWTFGGGTKVEIK
notes: Humanized; IgG4-2 kappa
Kd (Human HARS): 0.116 nM
Kd (Mouse HARS): 1.25 nM

B18: KL31-241 (antibody, V domains shown)
VH: B13 VH with T56A, L117S
VL: B13 VL with V107L
notes: Humanized; IgG1m(zf) kappa
Kd (Human HARS): 1.4 nM
Kd (Mouse HARS): 5.1 nM

The next lines start with the values.

Kd (Human HARS): 0.015 nM
Kd (Mouse HARS): 0.145 nM
B6: AB04-168 (antibody, IgG4, V domains shown)
VH: B5 VH
VL: B5 VL
notes: Human; IgG4-2 kappa

Kd (Human HARS): < 0.001 nM
Kd (Mouse HARS): 0.023 nM
B7: AB13-288 (IgG4-2 kappa) (antibody, V domains shown)
VH: B12 VH with S54K, T56R, N59K, S63K, V106I, S109A
VL: B5 VL with Y36F, R42K, A50V, S53N, Q55E, H70D
notes: Human

Kd (Human HARS): < 0.001 nM
Kd (Mouse HARS): < 0.001 nM
B8: AB13-112 (IgG1m(za) kappa) (antibody, V domains shown)
VH: B12 VH with S54K, T56R, N59K, S63K, V106I, S109A
VL: B5 VL with Y36F, R42K, A50V, S53N, Q55E, H70D
notes: Human

Kd (Human HARS): < 0.001 nM
Kd (Mouse HARS): < 0.001 nM
B9: AB13-288 (IgG1m(zf) kappa) (antibody, V domains shown)
VH: B12 VH with S54K, T56R, N59K, S63K, V106I, S109A
VL: B5 VL with Y36F, R42K, A50V, S53N, Q55E, H70D
notes: Human

Kd (Human HARS): 0.048 nM
Kd (Mouse HARS): 0.13 nM
B10: AB04-439 (antibody, V domains shown)
VH: B5 VH with K63S
VL: B5 VL
notes: Human; IgG1m(zf) kappa

Kd (Human HARS): < 0.001 nM
Kd (Mouse HARS): 0.0025 nM
B11: AB13-112 (IgG4 kappa) (antibody, V domains shown)
VH: B12 VH with S54K, T56R, N59K, S63K, V106I, S109A
VL: B5 VL with Y36F, R42K, A50V, S53N, Q55E, H70D
notes: Human

Kd (Human HARS): 0.104 nM
Kd (Mouse HARS): 0.942 nM
B16: KL31-240 (antibody, IgG4, V domains shown)
VH: B13 VH
VL: B15 VL
notes: Humanized; IgG4 kappa

Kd (Human HARS): 0.076 nM
Kd (Mouse HARS): 0.614 nM
IC50 (read off the curve) (Fc-HRS(2-60) [5]): ~10 nM
B17: KL31-478 (antibody, V domains shown)
VH: B13 VH
VL: B15 VL
notes: Humanized; IgG1m(zf) kappa

Kd (Human HARS): 0.064 nM
Kd (Mouse HARS): 0.37 nM
B19: KL31-532 (antibody, V domains shown)
VH: B13 VH
VL: B13 VL with Q92G, W95Y
notes: Humanized; IgG1m(zf) kappa
